Experiment [1] deals with MPER peptide PDT-081 (HIV-1).
The target of experiment [2] is MPER peptide PDT-081 (HIV-1). In words: BLI on PDT-081.
Experiment [3] has as its target MPER peptide PDT-081 (HIV-1). The experiment in a line: ELISA on PDT-081. In general terms: In an ELISA, binding on a coated surface is turned into a signal by an enzyme label.
Experiment [4] addresses MPER peptide PDT-081 (HIV-1). The experiment in a line: BLI (Octet RED96), Fab over biotinylated peptide on streptavidin sensors. A general note: Biolayer interferometry detects binding as a change in optical thickness at a sensor tip.
In experiment [5] the target is MPER peptide PDT-081 (HIV-1). The experiment in a line: ELISA on MPER (654-683) peptide, antibody titrated.

Substitutions are numbered along the chain they refer to. Like-named read-outs stand apart in the source and are kept apart here.

As usually defined, the Kd is the constant that tells how readily two partners part at equilibrium. Lower therefore signals a tighter complex. As usually defined, the koff is the first-order rate constant of dissociation. A lower koff goes with slow dissociation. For orientation: kon means the second-order rate constant of association. High values mean fast association, low ones slow association. Broadly, the EC50 is the concentration giving half of the maximal effect. Read a low EC50 as an effect from little substance. Usually EC50 (read off the curve) stands for the concentration at which the effect is half-maximal. Low readings indicate greater potency, high ones weaker potency.

B1: H4K3_RS73PE Fab (Fab, V domains shown)
VH: KVQLVQSGAELKKPWSSVRVSCKASGGSFSSYAFNWVRQAPGQRLEWLGGIVPLVSSTNYAQRFRGRVTISADPETSTVYLEMTGLTSADTAVYFCAREGEGWFGRPLRAFEFWGQGTLVTVST
VL: EIVLTQSPGTFALSPGERATLSCRASQSVSGGALAWYQQKAGQAPRLLIYDTSGRATGVPGRFSGSGSETDFSLTISRLEPEDFAVYYCQQYGTSQSTFGQGTRLETR
Consider B1, for which, in experiment [1], the Kd amounted to 12.8 nM. In experiment [2], this molecule gave a Kd of 12.8 nM, an off-rate (koff) of 0.00051 s⁻¹ and an association rate constant (kon) of 39000 M⁻¹ s⁻¹.

B2: H4K3_RS73PE (antibody, V domains shown)
VH: B1 VH
VL: B1 VL
Consider B2, for which, in experiment [3], the EC50 stood at 0.09 µg/mL and the Fold Increase (ELISA EC50 over H4K3) amounted to 2.3 fold.

B3: PGZL1.H4K3 Fab (Fab, V domains shown)
VH: B1 VH with P74R, E75S
VL: B1 VL with D51G
In experiment [2], B3 had a koff of 0.00051 s⁻¹ and a kon of 68000 M⁻¹ s⁻¹. In experiment [4], this molecule showed an equilibrium dissociation constant (Kd) of 7.5 nM, an off rate faster than that of PGZL1 of 8% and an on rate faster than that of PGZL1 of 24%.

B4: H4K3_5M Fab (Fab, V domains shown)
VH: B1 VH with S28E, F29P, S30E
VL: B1 VL
Regarding B4, in experiment [1], the Kd came to 23.4 nM. In addition, in experiment [2], the Kd came to 23.4 nM, the koff turned out to be 0.00067 s⁻¹ and the kon is 29000 M⁻¹ s⁻¹.

B5: H4K3_SFS28EPE (antibody, V domains shown)
VH: B1 VH with S28E, F29P, S30E, P74R, E75S
VL: B1 VL
In experiment [3], B5 showed an EC50 of 0.076 µg/mL and a Fold Increase (ELISA EC50 over H4K3) of 2 fold.

B6: H4K3_5M (antibody, V domains shown)
VH: B1 VH with S28E, F29P, S30E
VL: B1 VL
As for B6, in experiment [3], the EC50 came to 0.083 µg/mL and the Fold Increase (ELISA EC50 over H4K3) was 2.1 fold.

B7: H4K3_SFS28EPE Fab (Fab, V domains shown)
VH: B1 VH with S28E, F29P, S30E, P74R, E75S
VL: B1 VL
In experiment [1], B7 showed a Kd of 15.1 nM. In experiment [2], the dissociation constant Kd came to 15.1 nM, the koff is 0.00054 s⁻¹ and the kon was 36000 M⁻¹ s⁻¹.

B8: PGZL1.H4K3 (antibody, V domains shown)
VH: B1 VH with P74R, E75S
VL: B1 VL with D51G
As for B8, in experiment [3], the EC50 turned out to be 0.039 µg/mL.

B9: PGZL1 (antibody, V domains shown)
VH: EVQLVQSGGEVKRPGSSVTVSCKATGGTFSTLAFNWVRQAPGQGPEWMGGIVPLFSIVNYGQKFQGRLTIRADKSTTTVFLDLSGLTSADTATYYCAREGEGWFGKPLRAFEFWGQGTVITVSS
VL: DVVMTQSPGTLSLSPGERATLSCRASQSVSGGALAWYQQKPGQAPRLLIYDTSSRPTGVPGRFSGSGSGTDFSLTISRLEPEDFAVYYCQQYGTSQSTFGQGTRLEIK
Molecule B9 showed an EC50 (read off the curve) in experiment [5] of 0.02 µg/mL.

B10: PGZL1 Fab (Fab, V domains shown)
VH: B9 VH
VL: B9 VL
In experiment [4], B10 returned a Kd of 9.9 nM.

The values above are taken from patent US20240124560A1.
